One block for each molecule: values may come before it. {IBFQ} = Iowa Black FQ quencher
Legend:
[1] = Metabolic evaluation: lipid amount in the liver (LC/MS); type: in vivo, mouse; details: FIG. 4; Fluc mRNA-loaded LNP iv 0.5 mg mRNA/kg, BALB/c mice; 0.5, 4, 24 hours
Protocol: For liquid chromatography-mass spectrometry (LC/MS) for lipid quantification, liver samples stored at −80° C. prior to analysis were used. Mice were intravenously injected with lipid nanoparticles (0.5 mg RNA/kg body weight) and then liver tissue was harvested.
The tissue was homogenized in 200 μL of water, and the resulting tissue homogenate (50 μL) was subjected to an extraction with 400 μL of acetonitrile/isopropanol (50:50 (v/v)). The extract was centrifuged (4000 rpm, 10 min), the supernatant was filtered, and the filtrate was diluted 50-fold with water/acetonitrile/isopropanol (1:8:8 (v/v)) and transferred to a vial for LC/MS analysis using an Accucore. LC/MS was performed under the following conditions. The parent lipids and their predicted metabolites were detected under optimized conditions. Each lipid molecule was monitored using the following masses: [M+H]^+->916 (CL4H6), 864 (CL4F6), 982 (CL4F10-b-7), 752 (CL4F10-e-2). […]
Specifically, lipid nanoparticles encapsulating Fluc mRNA (Fluc mRNA-loaded lipid nanoparticles) were intravenously injected into BALB/c mice (female, 4 weeks old) at a dose of 0.5 mg mRNA/kg body weight. The mice were euthanized 0.5 hours, 4 hours, or 24 hours after the intravenous injection, and the amount of lipid derived from each lipid nanoparticle in the liver was measured.

[2] = Average particle diameter, PdI and zeta potential of lipid nanoparticles (dynamic light scattering); type: physicochemical
Protocol: The mean particle diameter (number average value), ζ-mean particle diameter, and polydispersity index (PdI) of the lipid nanoparticles in PBS(−) (pH 7.4), as well as the zeta potential in 10 mM HEPES buffer (pH 7.4), were measured using an analyzing device, Zetasizer Nano ZS ZEN3600 (Malvern), which utilizes dynamic light scattering.

[3] = Encapsulation rate of lipid nanoparticles (Ribogreen); type: physicochemical
Protocol: The encapsulation rate of the lipid nanoparticles was calculated by measuring the amount of encapsulated nucleic acid (the amount of ssODN in the case of RNP-ssODN) using an RNA intercalator Ribogreen (manufactured by Life Technologies).

sgTTR-G211-5FAM = test: Tm value between sgRNA and ssODN by fluorescence quenching method; type: physicochemical; details: with sgTTR-G211-5FAM in Cas9 RNP; FIG. 21(B); n=3
Protocol: To measure the Tm value between sgRNA and ssODN in the RNP complex using the fluorescence quenching method, a FAM-modified sgRNA whose 5′ end was modified with the fluorescent substance FAM and a 20-base-long IBFQ-modified ssODN whose 3′ end was modified with the quenching substance IBFQ were used.
Specifically, IBFQ-modified ssODN (5 equivalents relative to RNP) was added to Cas9 RNP containing FAM-modified sgRNA (final RNP concentration: 2.5 μM) to form an RNP-ssODN complex. The resulting solution (10 μL) was incubated at 10° C., after which the temperature was increased by 1° C. at 10 second intervals. The fluorescence intensity was measured at each temperature from 11 to 70° C. using a thermal cycler (“Dice® Real Time System III”, TaKaRa Bio Inc.). The temperature at which the fluorescence intensity was maximized was taken as the measured Tm value (° C.).

TTR gene [4] = test: Measurement of TTR-KO activity (serum TTR protein, ELISA); type: in vivo, mouse
Outline: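 Female BALB/c mice (4 weeks) received Cas9/sgTTR-RNP-loaded lipid nanoparticles i.v. at the indicated doses. Serum TTR protein measured by ELISA one week later. TTR-KO activity expressed as serum TTR (%) relative to untreated mice set at 100%.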

dsDNA from the TTR locus = test: In vitro DNA cleavage activity; type: biochemical, mouse; details: n=3
Description: Genomic DNA was collected and purified from BALB/c mouse liver tissue using a commercially available nucleic acid extraction kit (NucleoSpin Tissue, MACHEREY-NAGEL) according to the manufacturer's protocol.
The dsDNA from the TTR locus was amplified by PCR (using KAPA HiFi HotStart DNA polymerase (KAPA Biosystems)) using the genomic DNA as a template and the primer set shown in Table 4, and purified using a commercially available nucleic acid purification kit (ISOSPIN PCR Product, Nippon Gene).
The ssODN (5 equivalents relative to […]) was added to Cas9/sgTTR-RNP to form a TTR-RNP-ssODN complex. […] The reaction solution was then heated at 65° C. for 5 minutes to inactivate Cas9-RNP, and the dsDNA was then subjected to electrophoresis on a 3% agarose gel at 100 V for 40 minutes. After electrophoresis, the gel was stained (GelRed, Biotium) and visualized using a fluorescent/visible light gel imaging system (Printgraph CMOS I, ATTO). Bands were quantified using image analysis software (ImageJ).
DNA cleavage was calculated using the following formula: in the formula, Int_full and Int_cleaved indicate the intensities derived from full length (uncleaved) and cleaved DNA, respectively.

TTR gene [5] = test: T7E1 assay on liver genomic DNA; type: in vivo, mouse; details: 2 mg RNP/kg iv two consecutive days, one week after final injection, CL4H6 LNP, n=3
Protocol: Lipid nanoparticles encapsulating TTR-RNP-ssODN complexes (TTR-RNP-ssODN-loaded lipid nanoparticles) were intravenously injected to BALB/c mice (female, 4 weeks old) at 2 mg RNP/kg body weight for two consecutive days. One week after the last injection, the mice were euthanized and liver tissues were harvested, flash frozen in liquid nitrogen, and stored at −80° C.
Genomic DNA was extracted and purified from the collected liver tissue using a commercially available nucleic acid extraction kit (NucleoSpin Tissue, MACHEREY-NAGEL) according to the manufacturer's protocol.
The T7E1 assay was performed using a commercially available genome editing detection kit (Alt-R®, Integrated DNA Technologies). The dsDNA treated with T7E1 was subjected to agarose gel electrophoresis in the same manner as in the above described <Measurement of In vitro DNA Cleavage Activity>, and the gel after electrophoresis was stained and the bands were quantified.

[6] = Evaluation of biodistribution (fluorescently labeled RNP-ssODN); type: in vivo, mouse; details: mice iv 2 mg RNP/kg, 1 hour; labeled TTR-RNP-ssODN in CL4H6 LNP (ssODN(−): free RNP, no LNP)
Protocol: For fluorescent labeling of lipid nanoparticles, the RNP-ssODN solution described above was mixed with a three-fold molar amount of a fluorescent molecule (DyLight 650 NHS ester) in DMSO and incubated for 30 min at ambient temperature in the dark. Unreacted fluorescent molecules were removed by ultrafiltration (Amicon Ultra-0.5, MWCO 3 kDa, Millipore).
Lipid nanoparticles encapsulating the obtained fluorescently labeled RNP-ssODN (fluorescently labeled RNP-ssODN-loaded lipid nanoparticles) were intravenously injected into BALB/c mice (female, 4 weeks old) at 2 mg RNP/kg body weight. One hour after intravenous injection, the mice were euthanized and various tissues, including blood, were collected. The collected blood was immediately diluted with 1% sodium dodecyl sulfate (SDS) solution. The collected tissues were immediately weighed and then homogenized in 1% sodium dodecyl sulfate (SDS) solution. The resulting homogenates were transferred to a black 96-well plate, and fluorescence was measured using a microplate reader (VarioskanLux, Thermo Fisher Scientific) at settings of λex=652 nm and λem=672 nm. Calibration curves were generated using fluorescently labeled RNP-ssODN-loaded lipid nanoparticles and blood or tissue homogenates similarly prepared from untreated mice. Biodistribution was expressed as the percentage of injected dose per tissue or blood (% injected dose).

[7] = TTR-RNP-ssODN-loaded LNP (ssODN-TTR_3-40%), cationic lipid/DSPC/cholesterol/PEG-DMG 50/10/40/3.5 mol%, Table 8
[8] = TTR-KO activity in mice, TTR-RNP-ssODN-loaded LNP CL4H6/DSPC/cholesterol/PEG-DMG 50/10/40/3.5 mol%, sgTTR-G211 (TTR_3) or sgTTR-G269 (TTR_4)
[9] = TTR-RNP-ssODN-loaded LNP, sgTTR-G211, CL4H6/DSPC/cholesterol/PEG-DMG 50/10/40/3.5 mol%, Table 11

Molecule: CCCCC(CC)CCCCC(=O)OCCCCCCC(O)(CCCCCCOC(=O)CCCCC(CC)CCCC)CCCCN(CCC)CCC (stereo not shown) [CL4F10-e-2, 7-(4-(dipropylamino)butyl)-7-hydroxytridecane-1,13-diylbis(6-ethyldecanoate)]
amount of lipid in the liver (metabolism) [1]: most of it was degraded within 24 hours after administration

Number-average particle diameter [2, 7]: 80.1 nm
PdI [2, 7]: 0.254
ζ-average [2, 7]: 136.5 nm
ζ-potential [2, 7]: 2.83 mV
Encapsulation rate [3, 7]: 83.5%
Molecule: CCCCCCCC/C=C\CCCCCCCC(=O)OCCCCCCC(O)(CCCCCCOC(=O)CCCCCCC/C=C\CCCCCCCC)CCCCN(C(C)C)C(C)C [CL4H6, 7-(4-(diisopropylamino)butyl)-7-hydroxytridecane-1,13-diyl dioleate, reference compound]
amount of lipid in the liver (metabolism) [1]: almost completely disappeared from the liver 24 hours after administration

Molecule: ssODN-40%-3IBFQ: IBFQ bound to the 3′ end of ssODN-40% (SEQ ID NO 23), 40% matched with the ssON-paired region (DNA AAAAAAAGACGTGGAAAATT; 3' {IBFQ}, sugars by position and backbone not given here)
Tm value (fluorescence quenching) (sgTTR-G211-5FAM): 32 °C

Molecule: ssODN-80%-3IBFQ: IBFQ bound to the 3′ end of ssODN-80% (SEQ ID NO 22), 80% matched with the ssON-paired region (DNA AACTGTAGACGTGGCTGTTT; 3' {IBFQ}, sugars by position and backbone not given here)
Tm value (fluorescence quenching) (sgTTR-G211-5FAM): 62 °C

B1: ssODN-TTR_3-40%: ssODN pairing with sgTTR-G211, 40% matched; SEQ ID NO 7 (nucleic acid)
DNA: AAAAAAAAAAAAAAAAAAAAAAAAAAAAAAAAAAAAAAAAAAAAAAAAAAAAAAAAAAAAAAAGACGTGGAAAATTAAAAAAAAAAAAAAAAAAAAAAAAAAAAAAAAAAAAAAAAAAAAAAAAAAAAAAAA
reduction of serum TTR protein concentration compared to untreated mice (TTR gene [4]; 2 mg RNP/kg iv two consecutive days, one week after final injection, CL4H6 LNP): 81%
serum TTR activity / gene knockout activity (TTR gene [4]; FIG. 23, CL4H6 LNP prepared at 4° C., 2.0 mg RNP/kg, 7 days): low serum TTR activity, exhibiting sufficient gene knockout activity
KO (%) 1st test (TTR gene [4]; [8]): 47.8%
KO (%) 2nd test (TTR gene [4]; [8]): 56.5%
TTR-KO activity (ranking among ssODNs) (TTR gene [4]; Table 10, CL4H6 LNP, per sgRNA): highest TTR-KO activity
Number-average particle diameter [2, 9]: 85.5 nm
PdI [2, 9]: 0.094
ζ-average [2, 9]: 120.1 nm
ζ-potential [2, 9]: 2.54 mV
in vitro DNA cleavage activity (dsDNA from the TTR locus; FIG. 7, TTR-RNP-ssODN, sgTTR-G211, 37° C. 30 min): about the same as that of TTR-RNP-ssODN containing ssODN-TTR_3-0%
relative DNA cleavage activity at 37° C. (dsDNA from the TTR locus; FIG. 22(A), sgTTR-G211 RNP, activity without ssODN = 100%): about the same as that of the RNP containing ssODN-TTR_3-0%
relative DNA cleavage activity at 15° C. (dsDNA from the TTR locus; FIG. 22(B), sgTTR-G211 RNP, activity without ssODN = 100%): higher than that of RNP containing ssODN-TTR_3-80%, but was clearly lower than that of RNP containing ssODN-TTR_3-0%
KO activity at the DNA level (TTR gene [5]): 27%
Encapsulation rate [3, 9]: 86.0%
ID %/tissue blood [6]: 7.57 ID %/tissue
ID %/tissue kidney [6]: 0.14 ID %/tissue
ID %/tissue liver [6]: 42.28 ID %/tissue
ID %/tissue lung [6]: 0.26 ID %/tissue
ID %/tissue spleen [6]: 3.49 ID %/tissue

Source: US20250205362A1, “LIPID NANOPARTICLES” (NATIONAL UNIVERSITY CORPORATION HOKKAIDO UNIVERSITY, priority 2022, published 2025)
